Measured values from patent US6867193B1, “Amino acid-containing albumin preparation” (Nipro Corporation, priority 1999, dated 2005).

B1: 1.0% RSA: rat serum albumin (RSA, manufactured by Sigma Corp.), 1.0% final concentration, given alone (protein, UniProt P02770 25-608, looked up)
Albumin: EAHKSEIAHRFKDLGEQHFKGLVLIAFSQYLQKCPYEEHIKLVQEVTDFAKTCVADENAENCDKSIHTLFGDKLCAIPKLRDNYGELADCCAKQEPERNECFLQHKDDNPNLPPFQRPEAEAMCTSFQENPTSFLGHYLHEVARRHPYFYAPELLYYAEKYNEVLTQCCTESDKAACLTPKLDAVKEKALVAAVRQRMKCSSMQRFGERAFKAWAVARMSQRFPNAEFAEITKLATDVTKINKECCHGDLLECADDRAELAKYMCENQATISSKLQACCDKPVLQKSQCLAEIEHDNIPADLPSIAADFVEDKEVCKNYAEAKDVFLGTFLYEYSRRHPDYSVSLLLRLAKKYEATLEKCCAEGDPPACYGTVLAEFQPLVEEPKNLVKTNCELYEKLGEYGFQNAVLVRYTQKAPQVSTPTLVEAARNLGRVGTKCCTLPEAQRLPCVEDYLSAILNRLCVLHEKTPVSEKVTKCCSGSLVERRPCFSALTVDETYVPKEFKAETFTFHSDICTLPDKEKQIKKQTALAELVKHKPKATEDQLKTVMGDFAQFVDKCCKAADKDNCFATEGPNLVARSKEALA

Test system: hepatic encephalopathy model animal
Test: hepatic encephalopathy model rat (partial hepatectomy + ammonium acetate): coma period and plasma ammonia (Test Examples 1-3)
Assay type: in vivo
Details: for coma period / concentration of ammonia in the blood: mean ± standard error
Experimental: A test drug was prepared by dissolving rat serum albumin (RSA, manufactured by Sigma Corp.) in an amino acid solution (components are disclosed in Table 3) to form a 0.1 w/v % or 1.0 w/v % solution, adding 1.0 N hydrochloric acid thereto to adjust the pH to 6.6 to 7.4 according to Preparation Example 3, filling the solution into a 500 ml infusion bottle and heating at 60° C. for 10 hours after sealing the bottle with a rubber plug. In comparison, physiological saline or the amino acid solution (pH 6.6 to 7.4), respectively, was used in the same way.
Rat partial hepatectomy was carried out by performing a laparotomy of a male SD rat (body weight of 200 to 230 g) under etherization, removing a lateral left lobe, a medial left lobe and a medial right lobe (67%) and closing the abdomen (Archs. Pathol., 1985; 12: 186-202).
A hepatic encephalopathy model animal was created by administering 2 M ammonium acetate solution at a rate of 3 ml/kg into the rat abdomen after 48 hours from the partial hepatectomy (“Kiso to Rinsho”, 1987; 21: 2509-2527).
The test drug was injected from the rat tail vein (10 ml/kg) 2 minutes before administering the ammonium solution. Subsequently, the coma period (minutes) was measured, blood was collected from the rat tail vein 30 minutes after administration of the ammonium solution, and the ammonia concentration in the blood plasma was determined by using an ammonia measuring reagent kit (brand name: Determiner NH3, manufactured by Kyowa Medics Corporation).
A test drug was prepared by dissolving human serum albumin (HSA, manufactured by Sigma Corp.) in the amino acid solution (components are disclosed in Table 3) in the same manner as in Preparation Example 3 to form a desired concentration of the solution (0.001, 0.01, 0.1 or 1.0 w/v %). 6 to 14 male SD rats (body weight 200 to 230 g) as test animals were used per one group, and creation of a hepatic encephalopathy model animal and a test method were carried out in the same manner as Test Example 1. The test drug was injected in an amount of 10 ml/kg from the tail vein.
A test drug was prepared by dissolving bovine serum albumin (BSA, manufactured by Sigma Corp.) in the amino acid solution (components bare disclosed in Table 3) in the same manner as in Preparation Example 3 to form a desired concentration of the solution (0.1 w/v % or 1.0 w/v %). Creation of a hepatic encephalopathy model animal and a test method were carried out in the same manner as Test Example 1.

Row | Molecule | coma period (Test Example 3 (BSA)) [min] | concentration of ammonia in the blood (Test Example 3 (BSA)) [µmol/dL] | effect on the hepatic encephalopathy (Test Example 1, text on Table 4) | concentration of ammonia in the blood (Test Example 1, blood plasma 30 min after ammonium solution, test drug 10 ml/kg tail vein) [µmol/dL] | coma period (Test Example 1, male SD rat, test drug 10 ml/kg tail vein 2 min before ammonium acetate) [min]
1 | 1.0% BSA: bovine serum albumin (BSA, manufactured by Sigma Corp.), 1.0%, given alone | 23 ± 3 | 119 ± 10 | – | – | –
2 | B1 | – | – | no effect | 129 ± 13 | 31 ± 5
